Experimental data published in publication doi:10.1101/2025.08.13.670075.

Biological target: proteasome with HTBH-tagged 20S subunit PSMB2 (human (expressed in HEK293) | human (endogenous in HEK293T)) (UniProt P49721)
Assay: affinity purification with mass spectrometry

UniProt P49721, sequence (P49721 whole entry, looked up, tested part not stated): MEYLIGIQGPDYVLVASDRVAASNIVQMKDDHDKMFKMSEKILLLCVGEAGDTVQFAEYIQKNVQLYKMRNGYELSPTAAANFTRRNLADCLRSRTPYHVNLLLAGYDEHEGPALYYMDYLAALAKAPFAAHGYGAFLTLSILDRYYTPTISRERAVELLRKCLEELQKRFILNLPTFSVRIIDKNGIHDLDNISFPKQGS

fold change of USP15 content on proteasomes, MG132-treated over untreated cells: > 4 fold
B1: USP15 (endogenous, HEK293T or HeLa cells) (enzyme)
chain: MAEGGAADLDTQRSDIATLLKTSLRKGDTWYLVDSRWFKQWKKYVGFDSWDKYQMGDQNVYPGPIDNSGLLKDGDAQSLKEHLIDELDYILLPTEGWNKLVSWYTLMEGQEPIARKVVEQGMFVKHCKVEVYLTELKLCENGNMNNVVTRRFSKADTIDTIEKEIRKIFSIPDEKETRLWNKYMSNTFEPLNKPDSTIQDAGLYQGQVLVIEQKNEDGTWPRGPSTPKSPGASNFSTLPKISPSSLSNNYNNMNNRNVKNSNYCLPSYTAYKNYDYSEPGRNNEQPGLCGLSNLGNTCFMNSAIQCLSNTPPLTEYFLNDKYQEELNFDNPLGMRGEIAKSYAELIKQMWSGKFSYVTPRAFKTQVGRFAPQFSGYQQQDCQELLAFLLDGLHEDLNRIRKKPYIQLKDADGRPDKVVAEEAWENHLKRNDSIIVDIFHGLFKSTLVCPECAKISVTFDPFCYLTLPLPMKKERTLEVYLVRMDPLTKPMQYKVVVPKIGNILDLCTALSALSGIPADKMIVTDIYNHRFHRIFAMDENLSSIMERDDIYVFEININRTEDTEHVIIPVCLREKFRHSSYTHHTGSSLFGQPFLMAVPRNNTEDKLYNLLLLRMCRYVKISTETEETEGSLHCCKDQNINGNGPNGIHEEGSPSEMETDEPDDESSQDQELPSENENSQSEDSVGGDNDSENGLCTEDTCKGQLTGHKKRLFTFQFNNLGNTDINYIKDDTRHIRFDDRQLRLDERSFLALDWDPDLKKRYFDENAAEDFEKHESVEYKPPKKPFVKLKDCIELFTTKEKLGAEDPWYCPNCKEHQQATKKLDLWSLPPVLVVHLKRFSYSRYMRDKLDTLVDFPINDLDMSEFLINPNAGPCRYNLIAVSNHYGGMGGGHYTAFAKNKDDGKWYYFDDSSVSTASEDQIVSKAAYVLFYQRQDTFSGTGFFPLDRETKGASAATGIPLESDEDSNDNDNDIENENCMHTN
